The values that follow come from patent US20230079757A1, “METHODS AND MATERIALS FOR TREATING CANCER” (Mayo Foundation for Medical Education and Research, priority 2020, published 2023).

Sequences and labels used below:
T1: STAT1 homodimer (human, UniProt P42224 2-750)
T1 construct: It was inferred from co-IP after IFNγ treatment and was not purified; also called STAT1/STAT1 homodimer; STAT1-STAT1 complex
T1 sequence (looked up): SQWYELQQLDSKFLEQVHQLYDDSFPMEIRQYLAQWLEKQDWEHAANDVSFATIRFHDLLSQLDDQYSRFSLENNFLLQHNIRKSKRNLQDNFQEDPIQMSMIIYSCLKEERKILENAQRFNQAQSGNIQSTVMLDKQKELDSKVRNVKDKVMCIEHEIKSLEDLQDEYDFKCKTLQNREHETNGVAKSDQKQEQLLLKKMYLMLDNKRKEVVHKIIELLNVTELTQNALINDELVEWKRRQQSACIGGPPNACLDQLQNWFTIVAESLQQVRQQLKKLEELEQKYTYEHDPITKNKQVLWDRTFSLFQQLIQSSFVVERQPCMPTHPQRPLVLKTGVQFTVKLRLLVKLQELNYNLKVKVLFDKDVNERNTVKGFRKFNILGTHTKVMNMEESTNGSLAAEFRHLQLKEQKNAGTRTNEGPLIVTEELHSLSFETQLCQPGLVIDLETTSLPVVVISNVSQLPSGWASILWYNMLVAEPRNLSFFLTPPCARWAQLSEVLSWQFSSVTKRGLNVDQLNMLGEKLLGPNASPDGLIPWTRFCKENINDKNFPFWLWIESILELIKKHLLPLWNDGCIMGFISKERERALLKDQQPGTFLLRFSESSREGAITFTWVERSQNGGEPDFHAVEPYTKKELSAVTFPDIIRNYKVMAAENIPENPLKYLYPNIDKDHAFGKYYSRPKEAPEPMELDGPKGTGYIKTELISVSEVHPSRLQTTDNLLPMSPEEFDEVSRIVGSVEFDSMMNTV

B1: STAT1 (other, human, UniProt P42224 2-750, looked up)
chain: T1 sequence (looked up)
notes: Cells were stimulated with IFN; also called endogenous STAT1
B2: FOXA1 (Forkhead box protein A1), wild type (other, human, UniProt P55317 1-472, looked up)
chain: MLGTVKMEGHETSDWNSYYADTQEAYSSVPVSNMNSGLGSMNSMNTYMTMNTMTTSGNMTPASFNMSYANPGLGAGLSPGAVAGMPGGSAGAMNSMTAAGVTAMGTALSPSGMGAMGAQQAASMNGLGPYAAAMNPCMSPMAYAPSNLGRSRAGGGGDAKTFKRSYPHAKPPYSYISLITMAIQQAPSKMLTLSEIYQWIMDLFPYYRQNQQRWQNSIRHSLSFNDCFVKVARSPDKPGKGSYWTLHPDSGNMFENGCYLRRQKRFKCEKQPGAGGGGGSGSGGSGAKGGPESRKDPSGASNPSADSPLHRGVHGKTGQLEGAPAPGPAASPQTLDHSGATATGGASELKTPASSTAPPISSGPGALASVPASHPAHGLAPHESQLHLKGDPHYSFNHPFSINNLMSSSEQQHKLDFKAYEQALQYSPYGSTLPASLPLGSASVTTRSPIEPSALEPAYYQGVYSRPVLNTS
notes: also called FOXA1-WT; WT FOXA1
B3: IRF9 (other, UniProt Q00978 1-393, looked up)
chain: MASGRARCTRKLRNWVVEQVESGQFPGVCWDDTAKTMFRIPWKHAGKQDFREDQDAAFFKAWAIFKGKYKEGDTGGPAVWKTRLRCALNKSSEFKEVPERGRMDVAEPYKVYQLLPPGIVSGQPGTQKVPSKRQHSSVSSERKEEEDAMQNCTLSPSVLQDSLNNEEEGASGGAVHSDIGSSSSSSSPEPQEVTDTTEAPFQGDQRSLEFLLPPEPDYSLLLTFIYNGRVVGEAQVQSLDCRLVAEPSGSESSMEQVLFPKPGPLEPTQRLLSQLERGILVASNPRGLFVQRLCPIPISWNAPQAPPGPGPHLLPSNECVELFRTAYFCRDLVRYFQGLGPPPKFQVTLNFWEESHGSSHTPQNLITVKMEQAFARYLLEQTPEQQAAILSLV

Data set [1] deals with the molecule itself. Kind of data set: co-IP in 293T cells treated with IFNγ (FIG. 9D). As for the experimental part: (§1) For extraction of nuclear and cytoplasmic proteins from cells, NE-PER Nuclear and Cytoplasmic Extraction Kit (# 78835, Thermo Fisher Scientific) was used according to the manufacturer's instructions. IP buffer (50 mM Tris-HCl pH7.5, 150 mM NaCl, 1% NP40, 0.5% Sodium Deoxycholate) was used to extract whole cell lysate. P rotein A/G agarose (# 20421, Thermo Fisher Scientific) was used for immunoprecipitation of FOXA1 (# ab23738, Abcam) and Flag-tag (dilution 1:1000; # F1804, Sigma-Aldrich). Monoclonal anti-HA agarose (# A2095, Sigma-Aldrich) was used for HA-tag Co-IP. For glutathione-S-transferase (GST) pulldown assay, GST-tagged STAT2 fragment expressed at E. coli was purified by Glutathione Sepharose 4B beads (# 84-239, Genesee Scientific) and incubated with lysate from 293T cells expressing interested proteins, and GST pulldown assays were performed. For protein co-IP, samples eluted in IP butter were incubated with agarose beads and antibodies overnight at 4° C. and washed with 6 times with IP buffer in the following day. Samples were boiled for 10 minutes in 50 μl sample buffer (2% SDS, 10% glycerol, 10% β-mercaptoethanol, bromophenol blue and Tris-HCl, pH 6.8) and subjected to Western blotting.

The target of data set [2] is T2, STAT2 (human, UniProt P52630 1-851).
T2 construct: also called endogenous STAT2
T2 sequence (P52630 whole entry): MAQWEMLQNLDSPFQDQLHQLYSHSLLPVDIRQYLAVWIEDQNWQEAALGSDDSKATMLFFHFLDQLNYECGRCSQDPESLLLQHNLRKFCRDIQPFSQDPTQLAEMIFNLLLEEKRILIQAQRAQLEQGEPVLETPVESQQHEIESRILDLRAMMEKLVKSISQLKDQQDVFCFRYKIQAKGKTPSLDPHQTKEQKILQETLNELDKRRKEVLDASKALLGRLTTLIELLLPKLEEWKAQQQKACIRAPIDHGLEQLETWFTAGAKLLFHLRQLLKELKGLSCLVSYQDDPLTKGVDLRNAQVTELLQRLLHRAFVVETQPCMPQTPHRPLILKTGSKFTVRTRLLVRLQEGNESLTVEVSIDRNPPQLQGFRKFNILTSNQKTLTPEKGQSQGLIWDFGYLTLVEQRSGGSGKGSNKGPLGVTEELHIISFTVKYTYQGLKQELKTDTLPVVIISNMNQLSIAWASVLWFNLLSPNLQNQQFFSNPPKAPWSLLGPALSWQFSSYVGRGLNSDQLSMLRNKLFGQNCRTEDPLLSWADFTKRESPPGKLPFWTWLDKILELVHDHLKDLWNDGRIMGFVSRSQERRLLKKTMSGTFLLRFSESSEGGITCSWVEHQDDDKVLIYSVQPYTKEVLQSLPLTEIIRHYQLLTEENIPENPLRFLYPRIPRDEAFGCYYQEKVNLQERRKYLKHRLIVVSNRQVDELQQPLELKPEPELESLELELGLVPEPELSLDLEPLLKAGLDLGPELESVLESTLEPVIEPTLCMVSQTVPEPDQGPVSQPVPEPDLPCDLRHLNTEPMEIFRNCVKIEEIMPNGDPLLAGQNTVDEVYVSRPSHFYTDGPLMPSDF
Kind of data set: co-IP in 293T cells treated with IFNα (FIG. 9D). As for the experimental part: as §1

Data set [3] addresses T3, STAT1/STAT2 heterodimer (human, UniProt P42224 2-750; P52630 1-851).
T3 construct: It was inferred from co-IP after IFNα treatment and was not purified; also called STAT2/STAT1 heterodimer
The data set can be described thus: co-IP of endogenous proteins after IFNα treatment (FIG. 8A, 9A, 9B). As to the method:
as §1

In data set [4] the target is B1. Kind of data set: co-IP of endogenous proteins, nuclear fraction (FIG. 8A, 9A, 9B). As to the method: as §1
Data set [5] has as its target T2, STAT2. Kind of data set: co-IP of endogenous proteins in LNCaP cells (FIG. 8A). As to the method:
as §1

The target of data set [6] is T1, STAT1 homodimer. Kind of data set: co-IP of endogenous proteins after IFNγ treatment (FIG. 8A, 9A, 9B). As to the method: as §1
Data set [7] addresses T3, STAT1/STAT2 heterodimer. Kind of data set: co-IP in 293T cells treated with IFNα (FIG. 9D). As for the experimental part: as §1

T3 sequence (P52630 whole entry, one chain of several): as the sequence (P52630 whole entry) above

For the molecule B1, the binding result in data set [1] and in data set [2] was “binds” in each case.
Consider B2, for which the binding result in data set [3], in data set [4], in data set [5] and in data set [6] was “binds” each time.
Regarding B3, the binding result in data set [7] is listed as “binds”.
